For this assay, the target named is T1, 人PSGL-1 (on THP-1 cells) (human) (UniProt Q14242).
T1 sequence (looked up): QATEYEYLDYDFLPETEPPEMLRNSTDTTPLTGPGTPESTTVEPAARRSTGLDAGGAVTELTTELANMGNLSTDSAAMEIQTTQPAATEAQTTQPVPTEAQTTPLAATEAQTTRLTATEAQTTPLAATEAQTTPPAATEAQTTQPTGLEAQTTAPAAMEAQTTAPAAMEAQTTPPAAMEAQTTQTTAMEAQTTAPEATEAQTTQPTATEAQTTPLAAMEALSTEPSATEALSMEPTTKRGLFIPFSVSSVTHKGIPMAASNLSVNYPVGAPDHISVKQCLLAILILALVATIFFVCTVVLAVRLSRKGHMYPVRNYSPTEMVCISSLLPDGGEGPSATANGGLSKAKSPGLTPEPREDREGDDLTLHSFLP
Kind of assay: flow cytometry competition on THP-1 cells; competitor recombinant human P-selectin/CD62P Fc chimera; antibody 10 μg/mL. Background: A flow cytometer gives signals particle by particle.

B1: 抗体Rh001-22 (antibody, V domains shown)
VH: QVQLLESGPGLVKPSETLSLTCAVSGGSLTSHYWGWIRQPPGKGLEWVGSISGSSGNPEYNPSLKSRATISRDTSENQFSLRVNSVTAADTAVYHCVRWQRLENYFDSWGQGTLVTVSS
VL: DIQMTQPPSVSGDPGQRVTISCTGSTSNIGTYYVSWYRQVPGTVPKLLIYENNKRPSGVSDRFSGSKSGTSASLTITGLQPGDEADYYCLAWDDGLSAGLFGGGTKVEIK
In the case of B1, the fold decrease of CD62P+CD45+/总CD45+细胞 at 10μg/mL was 1.5 倍.

B2: 抗体Rh001-6 (antibody, V domains shown)
VH: QVQLLESGPGLVKPSETLSLSCTVSGGSISGYYYWSWIRQPPGKGLEWIGGIYGTSGSAYYNPSLKSRVTISKDTSKNQFSLKLSSVTAADTAVYYCTRHASGGANTDLWGQGTLVTVSS
VL: DIQMTQSPLSLPVTPGQPASISCRSSQSLVHSDGKTYLNWLQQKPGQPPRRLIYQVSNRDSGVPDRFSGSGAGTDFTLKISRVEAEDVGVYYCGQGTNVPFTFGPGTKVEIK
In the case of B2, the fold decrease of CD62P+CD45+/总CD45+细胞 at 10μg/mL was 2 倍.

Values taken from patent CN113667015A.
